Like-named read-outs stand apart in the source and are kept apart here.
B1: NRC-sdAb032 (VHH)
VHH: QVKLEESGGGLVQPGGSLRLSCSASGSISSISVMGWYRQAPGKQRELVARITSGGISNYVDSVKGRFTISGDSAKNIVYLQMNSLKPEDTAVYYCYMYVHVGYWVDYWGQGTQVTVSS
notes: Monomeric llama VHH; in ELISA a version with biotin acceptor peptide and 6xHis was used; also called EVE46; not shown: C-terminal c-Myc and 6xHis tags
B2: NRC-sdAb022 (VHH)
VHH: QVQLVESGGGLVQPGGSLKLSCAVSGFAFERNGVSWYRQAPGKQREFVAVISSGTTTYKDSVKGRFTISRDNTRNTAYLQMNNLKPEDTAVYYCNLVPPTPYWGQGTQVTVSS
notes: Monomeric llama VHH; in ELISA a version with biotin acceptor peptide and 6xHis was used; Stands for the 'NRC-sdAb022-family' in the cross-species and binning sentences; also called EGFR2; NRC-sdAb022-family VHHs; not shown: C-terminal c-Myc and 6xHis tags
B3: NRC-sdAb028 (VHH)
VHH: EVQLVESGGGLVQPGGSLRLSCTVSGSFFSRDAMGWHRQAPGKQREMVAGISSGGLSNHAESVKGRFTISRDNSKNTVYLQMNNLKPEDTAVYYCSIYEDGVWTSWGQGTQVTVSS
notes: Monomeric llama VHH; in ELISA a version with biotin acceptor peptide and 6xHis was used; also called EGFR10; not shown: C-terminal c-Myc and 6xHis tags

Tests used:
[1] = target: T1, recombinant 6xHis-tagged human EGFR ectodomain (human, UniProt P00533 25-645); test: SPR multi-cycle, EGFR ectodomain over amine-coupled NRC-sdAb032
T1 construct: extracellular domain; Bought; also called recombinant human EGFR; EGFR extracellular domain; not shown: 6xHis tag

[2] = target: T2, human EGFR-Fc fusion protein (human, UniProt P00533 25-645); test: SPR single-cycle, VHH over amine-coupled human EGFR-Fc
T2 construct: Bought; not shown: Fc part of the bought fusion

[3] = target: T2, human EGFR-Fc fusion protein; test: SPR, VHH over human EGFR-Fc;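 note: Single-cycle kinetics on Biacore T200 at 25 °C in HBS-EP, monomeric VHHs at 0.6–50 nM flowed over immobilized EGFR, 180 s association, 600 s dissociation, ethanolamine-blocked reference cell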
Method: (§1) In the second SPR experiment, single-cycle kinetic analyses were performed on a Biacore™ T200 instrument (GE Healthcare) at 25° C. in HBS-EP buffer. […] An ethanolamine-blocked flow cell served as the reference. Monomeric VHHs at concentrations ranging from 0.6 to 50 nM were injected over the EGFR surfaces in HBS-EP buffer at a flow rate of 40 μL/min. The contact time was 180 s and the dissociation time was 600 s. The EGFR surfaces were regenerated using a 10 s pulse of 10 mM glycine, pH 1.5.

[4] = target: T3, rhesus EGFR-Fc fusion protein (rhesus, UniProt P55245 25-645); test: SPR single-cycle, VHH over amine-coupled rhesus EGFR-Fc
T3 construct: Bought; not shown: Fc part of the bought fusion

[5] = target: T4, mouse EGFR-Fc fusion protein (mouse, UniProt Q01279 25-647); test: ELISA, VHH titrated from about 0.5 to 1000 ng/mL, OD 450 nm
T4 construct: Bought; not shown: Fc part of the bought fusion

[6] = target: T3, rhesus EGFR-Fc fusion protein; test: SPR single-cycle, VHH over amine-coupled rhesus EGFR-Fc; remark: listed apart in the source
Method: as §1

[7] = target: recombinant human EGFRvIII ectodomain (human) (UniProt P00533); test: SPR multi-cycle, VHH over amine-coupled EGFRvIII ectodomain
[8] = target: T1, recombinant 6xHis-tagged human EGFR …; test: SPR multi-cycle, VHH over amine-coupled EGFR ectodomain
Method: (§2) In the first SPR experiment, multi-cycle kinetic analyses were performed on a Biacore™ 3000 instrument (GE Healthcare) at 25° C. in HBS-EP buffer [10 mM HEPES, pH 7.4, containing 150 mM NaCl, 3 mM EDTA and 0.005% (w/v) surfactant P20]. […] An ethanolamine-blocked flow cell served as the reference. Monomeric VHHs at concentrations ranging from 0.1 to 100 nM were injected over the EGFR and EGFRvIII surfaces in HBS-EP buffer at a flow rate of 20 μL/min. […] Contact times were 180-300 s and dissociation times were 300-600 s.

[9] = target: T2, human EGFR-Fc fusion protein; test: ELISA, VHH titrated from about 0.5 to 1000 ng/mL, OD 450 nm
[10] = target: T3, rhesus EGFR-Fc fusion protein; test: as above
[11] = target: T4, mouse EGFR-Fc fusion protein; test: as above; remark: listed apart in the source
[12] = target: T2, human EGFR-Fc fusion protein; test: as above; remark: listed apart in the source
[13] = target: T3, rhesus EGFR-Fc fusion protein; test: as above; remark: listed apart in the source
[14] = target: T4, mouse EGFR-Fc fusion protein; test: SPR single-cycle, VHH over amine-coupled mouse EGFR-Fc
Method: as §1

[15] = target: T1, recombinant 6xHis-tagged human EGFR …; test: SPR (value of Table 2 repeated in Table 6)
Method: as §2

Binder	Kd [2] [nM]	koff [2] [s⁻¹]	kon [2] [M⁻¹ s⁻¹]	Kd [3] [nM]	koff [3] [s⁻¹]	kon [3] [M⁻¹ s⁻¹]	koff [4] [s⁻¹]	kon [4] [M⁻¹ s⁻¹]	Kd [6] [nM]	Kd [7] [nM]	koff [7] [s⁻¹]	kon [7] [M⁻¹ s⁻¹]	Kd [8] [nM]	koff [8] [s⁻¹]	kon [8] [M⁻¹ s⁻¹]	further results
B1	6.9	0.0025	360000	6.9	0.0025	360000	0.0039	480000	8.1							Kd [1]: 12.9 nM; koff [1]: 0.0013 s⁻¹; kon [1]: 100000 M⁻¹ s⁻¹; binding result [5]: no binding (tested: 1000 ng/mL)
B2	8.9	0.0022	250000	8.9	0.0022	250000	0.0017	85000	19.6	2.6	0.00077	290000	1.7	0.00067	400000	EC50 (read off the curve) [9]: ~3 ng/mL; EC50 (read off the curve) [10]: ~4 ng/mL; binding result [11]: no binding (tested: 1000 ng/mL)
B3	6	0.00055	92000	6	0.00055	92000				8.6	0.00084	98000	9	0.00075	84000	EC50 (read off the curve) [12]: ~7 ng/mL; binding result [13]: no binding (tested: 1000 ng/mL); Kd [14]: 11.6 nM; koff [14]: 0.0075 s⁻¹; kon [14]: 650000 M⁻¹ s⁻¹; Kd [15]: 9 nM
